Assay results: IntAct's records for PubMed 21577200

Target: spop_human SPOP (UniProt O43791)
Sequence (O43791 whole entry): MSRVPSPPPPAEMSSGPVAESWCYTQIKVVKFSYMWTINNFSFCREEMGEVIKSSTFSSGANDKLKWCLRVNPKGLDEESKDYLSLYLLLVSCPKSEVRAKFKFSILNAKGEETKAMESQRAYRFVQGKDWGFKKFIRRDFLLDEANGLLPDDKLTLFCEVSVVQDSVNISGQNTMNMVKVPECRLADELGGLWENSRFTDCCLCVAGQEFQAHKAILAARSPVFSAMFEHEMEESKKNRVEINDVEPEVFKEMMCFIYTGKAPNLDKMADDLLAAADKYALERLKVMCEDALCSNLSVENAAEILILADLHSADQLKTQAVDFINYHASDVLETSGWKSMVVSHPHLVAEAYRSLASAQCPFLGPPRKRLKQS

Row | Substance | effect of a mutation on the interaction
1 | Nuclear receptor coactivator 3 (Homo sapiens), Q9Y6Q9 S101A;S102A | disrupting interaction
2 | Nuclear receptor coactivator 3 (Homo sapiens), Q9Y6Q9 S102A | disrupting interaction
